T1: human MPL (Homo sapiens, UniProt P40238)
T1 construct: endogenous in cells; host or cells: HEL-92.1.7 (HEL) cells
T1 sequence (P40238 26-635): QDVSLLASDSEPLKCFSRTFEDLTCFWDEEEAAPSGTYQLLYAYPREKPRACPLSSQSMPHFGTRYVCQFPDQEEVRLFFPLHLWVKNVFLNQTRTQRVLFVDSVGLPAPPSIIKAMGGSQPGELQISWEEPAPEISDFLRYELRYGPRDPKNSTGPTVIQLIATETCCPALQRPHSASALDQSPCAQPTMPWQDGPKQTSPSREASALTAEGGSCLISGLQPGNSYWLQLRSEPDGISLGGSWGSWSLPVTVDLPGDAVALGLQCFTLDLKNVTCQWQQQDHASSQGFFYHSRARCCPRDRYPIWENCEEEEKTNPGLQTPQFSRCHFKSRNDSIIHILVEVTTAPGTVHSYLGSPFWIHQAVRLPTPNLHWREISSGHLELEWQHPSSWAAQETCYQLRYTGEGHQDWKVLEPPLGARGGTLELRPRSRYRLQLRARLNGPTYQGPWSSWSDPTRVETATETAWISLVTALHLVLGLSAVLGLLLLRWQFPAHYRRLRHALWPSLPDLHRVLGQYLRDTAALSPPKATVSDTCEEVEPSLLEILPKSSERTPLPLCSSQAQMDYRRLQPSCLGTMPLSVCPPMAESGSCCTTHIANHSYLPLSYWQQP


Experiments:
[1] = tested on: RAJI-Luc cells; assay: NSG mice xenografted with RAJI-Luc cells, CD19-CAR T cells with FKBP-fusion modules, with or without AP20187; format: in vivo, mouse; conditions: AP20187 40 μg every day for 10 days intraperitoneal
Description: T cells expressing the CAR and these accessory modules are tested using in vitro assays in the absence and presence of the dimerizer AP20187 (100 nM). […] Half the mice in each group (n =6) are administered 40 μg of AP20187 every day for 10 days by intraperitoneal injection as described previously (Chinnery et al, J Immunol 2009; 182:2738-2744).

[2] = biological target: T1, human MPL; assay: NFAT-driven GFP expression and IL2 production of parental and TCR-deficient J-N-G cells exposed to HEL.92.1.7 cells; format: cell-based; conditions: MPL-specific TFP-expressing J-N-G cells with the corresponding TCR chain knocked out; HEL.92.1.7 co-culture
Source text: Jurkat-NFAT-GFP (J-N-G) cells (T cell lymphoma) are infected with lentiviral vectors expressing gRNAs targeting TCRα and TCRβ1/β2 constant chains and coexpressing Streptococcus Pyogenes Cas9. The exemplary gRNA target sequences for TCRα chains are given in SEQ ID NO: 7754 and 7755. The exemplary gRNA target sequences for TCRβ1/β2 chains are given in SEQ ID NO: 7756-7758. In an alternative embodiment, the TCRα and TCRβ1/β2 constant chain loci are targeting using gRNA and TALONs as described in Knipping F et al, Molecular Therapy: Methods & Clinical Development, Vol 4, 2017. J-N-G cells lacking the expression of TCRα or TCRβ1/β2 chains are purified by cell sorting using antibodies directed against TCR/CD3 complex. […] Expression of TFPs in the cells is determined by immunostaining with Protein L staining and by staining with MPL-ECD-GGSG-NLuc-AcVS fusion protein (SEQ ID NO: 4923). J-N-G parental cells show robust TFP expression on cell surface while J-N-G cells lacking TCRα or TCRβ1/β2 chains show poor to absent TFP expression. The different populations of J-N-G cells are exposed to HEL.92.1.7 target cells for 24 hours and examined for increase in NFAT-promoter driven GFP expression and IL2 production. J-N-G parental cells expressing MPL-specific TFPs show marked increase in GFP fluorescence and IL2 secretion upon co-culture with HEL.92.1.7 cells. […]

[3] = biological target: T1, human MPL; assay: Jurkat-NFAT-EGFP (J-N-G) reporter: EGFP induction upon co-culture with HEL cells; format: cell-based; conditions: 4 h
Source text: Jurkat cell line (clone E6-1) engineered with a NFAT-dependent EGFP (or GFP) reporter gene was a gift from Dr. Arthur Weiss at University of California San Francisco and have been described to study CAR-signaling ((Wu, C Y et al., Science 350:293-302, 2015). Jurkat cells were maintained in RPMI-1640 medium supplemented with 10% FBS, penicillin and streptomycin.
The murine monoclonal antibody 161 targets human MPL (Thrombopoietin receptor o TPO-R). To generate a CAR targeting MPL but with reduced immunogenicity, sequence of the scFV fragment comprising the antigen binding domain of the murine 161 antibody was humanized. […] Jurkat-NFAT-EGFP (J-N-G) cells were stably transduced with the lentivirus encoding the humanized MPL-hu-161-2 CAR construct. The parental and CAR-expressing Jurkats were subsequently cocultured with HEL cells and induction of EGFP expression monitored by FACS analysis after 4 h.
The murine monoclonals 175 and 111 also bind human MPL. […] The experiment is repeated as in the preceding example.
The sequence of these TFP CAR constructs is shown in SEQ ID NO: 3526 to 3533. […]
Several Ab-TCR are constructed targeting MPL based on murine 161 scFV as the antigen binding domain. […] T cells expressing MPL Ab-TCRs are shown to induce lysis of HEL-GLuc cells as measured by increase in GLuc activity. […]

Molecule	TFP surface expression, GFP expression and IL2 secretion after expression of the constant chain [2]	further results
CC[C@H](C(=O)N1CCCC[C@H]1C(=O)O[C@H](CCc1ccc(OC)c(OC)c1)c1cccc(OCC(=O)NCC(CNC(=O)COc2cccc([C@@H](CCc3ccc(OC)c(OC)c3)OC(=O)[C@@H]3CCCCN3C(=O)[C@@H](CC)c3cc(OC)c(OC)c(OC)c3)c2)CN(C)C)c1)c1cc(OC)c(OC)c(OC)c1 [AP20187]		expansion of CAR-T cells in vivo [1]: promote the expansion of CAR-T cells
IgSP-[hTRBC-opt2]: codon optimized TCRβ constant chain with signal peptide (protein) MDWIWRILFLVGAATGAHSFEGGTREDLKNVFPPEVAVFEPSEAEISHTQKATLVCLATGFYPDHVELSWWVNGKEVHSGVSTDPQPLKEQPALNDSRYCLSSRLRVSATFWQNPRNHFRCQVQFYGLSENDEWTQDRAKPVTQIVSAEAWGRADCGFTSESYQQGVLSATILYEILLGKATLYAVLVSALVLMAMVKRKDSRG	increased expression of TFP on the cell surface and induction of GFP expression and IL2 secretion	
MPL-hu-161-2: 2nd generation CAR (41BB, CD3z) with humanized 161 scFv hu-161-2 targeting human MPL (protein, Synthetic Polynucleotide encoding a CAR with optional accessory module(s)) MALPVTALLLPLALLLHAARPDVVMTQSPSSLSASVGDRVTITCMASEDIYIRLAWYQQKPGNAPKLLIYAATSLETGVPSRFSGSGSGTDFTLTISSLQPEDFATYYCQQYWSSPWTFGGGTKVEIKGGGGSGGGGSGGGGSQVQLQESGPGLVKPSQTLSLTCTVSGYSITSDYTWNWIRQPPGNGLEWIGYITYSGSTSYNPSLKSRVLISVDTSKNQVSLKLSSVTAADTAVYYCARLGRRYTMDYWGQGTTVTVSSTREQKLISEEDLAKPTTTPAPRPPTPAPTIASQPLSLRPEACRPAAGGAVHTRGLDFACDIYIWAPLAGTCGVLLLSLVITLYCKRGRKKLLYIFKQPFMRPVQTTQEEDGCSCRFPEEEEGGCELRVKFSRSADAPAYQQGQNQLYNELNLGRREEYDVLDKRRGRDPEMGGKPRRKNPQEGLYNELQKDKMAEAYSEIGMKGERRRGKGHDGLYQGLSTATKDTYDALHMQALPPRSSGSGEGRGSLLTCGDVEENPGPHMTEYKPTVRLATRDDVPRAVRTLAAAFADYPATRHTVDPDRHIERVTELQELFLTRVGLDIGKVWVADDGAAVAVWTTPESVEAGAVFAEIGPRMAELSGSRLAAQQQMEGLLAPHRPKEPAWFLATVGVSPDHQGKGLGSAVVLPGVEAAERAGVPAFLETSAPRNLPFYERLGFTVTADVEVPEGPRTWCMTRKPGA		EGFP expression [3]: increase in EGFP expression
IgSP-[hTRAC-opt2]: codon optimized TCRα constant chain with signal peptide (protein) MDWIWRILFLVGAATGAHSFEGGTRFEGGLEIQNPDPAVYQLRDSKSSDKSVCLFTDFDSQTNVSQSKDSDVYITDKTVLDMRSMDFKSNSAVAWSNKSDFACANAFNNSIIPEDTFFPSPESSCDVKLVEKSFETDTNLNFQNLSVIGFRILLLKVAGFNLLMTLRLWSS	increased expression of TFP on the cell surface and induction of GFP expression and IL2 secretion	

From patent US12570711B2, “Platforms for co-stimulation, novel car designs and other enhancements for adoptive cellular therapy” (Angeles Therapeutics, Inc., priority 2017, dated 2026)
